Laboratory results taken from the supplement of paper PMC10065799, “High-throughput profiling of sequence recognition by tyrosine kinases and SH2 domains using bacterial peptide display” (eLife, 2023).

Tests used:
AncSZ = experiment: phosphorylation enrichment, bacterial display (enrichment ratio); higher = better substrate or ligand; peptides without Tyr show the background
EPHB1 = EPHB1 (UniProt P54762); experiment: as above
EPHB2 = EPHB2 (UniProt P29323); experiment: as above
FGFR1 = FGFR1 (UniProt P11362); experiment: as above
FGFR3 = FGFR3 (UniProt P22607); experiment: as above
Fer (mouse) = experiment: as above
Fes = Fes (UniProt P07332); experiment: as above
Fyn = Fyn (UniProt P06241); experiment: as above
Hck = Hck (UniProt P08631); experiment: as above
Jak2 = Jak2 (UniProt O60674); experiment: as above
MERTK = MERTK (UniProt Q12866); experiment: as above
c-Abl (mouse) = experiment: as above
c-Src = experiment: as above
Grb2 SH2 = Grb2 SH2 (UniProt P62993); experiment: SH2 binding enrichment of the phosphorylated peptide, bacterial display (enrichment ratio); higher = better substrate or ligand; peptides without Tyr show the background
SHP2-C SH2 = experiment: as above
c-Src SH2 = experiment: as above
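Throughout, for SH2 binding enrichment of the phosphorylated peptide, bacterial display: peptide library displayed on the E. coli surface as eCPX fusions, selected cells deep-sequenced, score is each peptide's frequency after selection divided by its frequency in the input.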
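Throughout, for phosphorylation enrichment, bacterial display: 11-residue human phosphosite peptides and single-mutation variants displayed on the E. coli surface, counted by deep sequencing, each peptide's frequency after selection divided by its frequency in the unselected input library; frequency after pTyr selection over input frequency; kinase dosed for 20-30% of maximal phosphorylation in three min.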

Sequence of Jak2 (O60674 whole entry, looked up): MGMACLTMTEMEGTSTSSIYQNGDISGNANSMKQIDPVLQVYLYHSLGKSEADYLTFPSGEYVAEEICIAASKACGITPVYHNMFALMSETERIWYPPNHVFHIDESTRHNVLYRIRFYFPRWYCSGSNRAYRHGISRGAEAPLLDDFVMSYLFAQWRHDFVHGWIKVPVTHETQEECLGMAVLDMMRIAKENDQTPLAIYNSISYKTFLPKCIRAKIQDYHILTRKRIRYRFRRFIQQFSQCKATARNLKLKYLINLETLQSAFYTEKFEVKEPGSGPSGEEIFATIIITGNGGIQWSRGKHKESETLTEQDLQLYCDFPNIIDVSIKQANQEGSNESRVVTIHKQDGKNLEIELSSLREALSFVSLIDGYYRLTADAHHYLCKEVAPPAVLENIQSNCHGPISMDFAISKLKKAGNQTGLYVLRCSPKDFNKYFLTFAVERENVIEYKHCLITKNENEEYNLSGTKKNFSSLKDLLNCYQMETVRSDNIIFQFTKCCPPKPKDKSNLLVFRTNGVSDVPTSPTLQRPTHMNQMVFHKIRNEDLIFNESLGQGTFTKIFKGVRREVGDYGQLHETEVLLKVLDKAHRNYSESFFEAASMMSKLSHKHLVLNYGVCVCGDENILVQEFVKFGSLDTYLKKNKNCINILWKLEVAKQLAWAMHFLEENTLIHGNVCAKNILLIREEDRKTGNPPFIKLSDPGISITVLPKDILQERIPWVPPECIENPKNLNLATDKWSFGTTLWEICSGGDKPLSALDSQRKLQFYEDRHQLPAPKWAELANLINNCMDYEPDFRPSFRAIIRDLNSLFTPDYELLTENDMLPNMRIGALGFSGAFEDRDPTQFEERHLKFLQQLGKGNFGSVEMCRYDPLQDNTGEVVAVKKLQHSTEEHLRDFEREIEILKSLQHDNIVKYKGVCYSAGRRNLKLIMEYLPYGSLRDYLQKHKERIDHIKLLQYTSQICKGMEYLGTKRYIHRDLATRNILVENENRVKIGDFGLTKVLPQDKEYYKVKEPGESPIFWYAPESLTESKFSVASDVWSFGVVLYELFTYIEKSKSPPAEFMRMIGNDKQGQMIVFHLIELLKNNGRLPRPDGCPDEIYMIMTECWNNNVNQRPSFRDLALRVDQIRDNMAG
Sequence of Fyn (P06241 whole entry, looked up): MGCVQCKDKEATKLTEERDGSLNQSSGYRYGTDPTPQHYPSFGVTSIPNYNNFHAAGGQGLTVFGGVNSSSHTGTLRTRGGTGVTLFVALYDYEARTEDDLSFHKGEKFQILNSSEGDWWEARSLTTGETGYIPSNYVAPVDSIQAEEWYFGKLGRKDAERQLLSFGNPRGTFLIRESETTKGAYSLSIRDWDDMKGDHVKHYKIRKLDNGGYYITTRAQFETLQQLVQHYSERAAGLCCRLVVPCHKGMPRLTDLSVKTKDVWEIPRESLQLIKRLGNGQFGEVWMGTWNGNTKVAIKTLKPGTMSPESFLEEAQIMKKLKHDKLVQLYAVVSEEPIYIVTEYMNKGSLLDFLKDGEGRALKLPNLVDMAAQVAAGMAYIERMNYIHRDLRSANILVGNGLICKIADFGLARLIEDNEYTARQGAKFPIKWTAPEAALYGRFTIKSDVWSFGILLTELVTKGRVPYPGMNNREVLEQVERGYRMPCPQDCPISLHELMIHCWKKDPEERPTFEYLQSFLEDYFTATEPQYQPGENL
Sequence of EPHB2 (P29323 whole entry, looked up): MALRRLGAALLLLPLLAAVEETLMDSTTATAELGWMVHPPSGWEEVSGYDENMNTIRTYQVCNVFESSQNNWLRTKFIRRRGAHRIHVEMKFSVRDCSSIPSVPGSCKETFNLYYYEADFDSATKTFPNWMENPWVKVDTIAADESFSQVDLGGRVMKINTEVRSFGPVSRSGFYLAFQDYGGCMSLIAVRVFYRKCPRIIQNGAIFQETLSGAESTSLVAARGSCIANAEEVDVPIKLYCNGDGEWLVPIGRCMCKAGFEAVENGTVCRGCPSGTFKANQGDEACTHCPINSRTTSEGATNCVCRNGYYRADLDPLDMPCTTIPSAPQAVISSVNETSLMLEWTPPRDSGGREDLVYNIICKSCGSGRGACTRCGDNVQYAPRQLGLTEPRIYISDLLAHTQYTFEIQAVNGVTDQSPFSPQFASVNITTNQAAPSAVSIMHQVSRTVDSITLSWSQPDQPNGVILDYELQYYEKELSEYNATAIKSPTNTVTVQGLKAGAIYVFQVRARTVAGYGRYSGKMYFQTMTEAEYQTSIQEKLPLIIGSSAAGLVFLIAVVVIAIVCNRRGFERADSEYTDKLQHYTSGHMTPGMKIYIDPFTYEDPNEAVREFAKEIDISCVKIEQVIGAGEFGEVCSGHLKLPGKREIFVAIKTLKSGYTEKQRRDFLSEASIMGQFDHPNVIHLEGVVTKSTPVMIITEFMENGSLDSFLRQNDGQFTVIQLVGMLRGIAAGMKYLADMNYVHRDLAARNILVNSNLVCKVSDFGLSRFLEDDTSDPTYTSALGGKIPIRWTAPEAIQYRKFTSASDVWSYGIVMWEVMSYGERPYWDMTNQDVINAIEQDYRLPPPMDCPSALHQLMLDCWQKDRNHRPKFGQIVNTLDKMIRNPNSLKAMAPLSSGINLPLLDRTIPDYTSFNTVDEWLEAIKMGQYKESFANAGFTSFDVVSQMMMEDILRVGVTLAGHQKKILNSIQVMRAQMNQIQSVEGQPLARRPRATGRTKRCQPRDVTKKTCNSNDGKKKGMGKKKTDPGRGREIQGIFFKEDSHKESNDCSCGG
Sequence of Hck (P08631 whole entry, looked up): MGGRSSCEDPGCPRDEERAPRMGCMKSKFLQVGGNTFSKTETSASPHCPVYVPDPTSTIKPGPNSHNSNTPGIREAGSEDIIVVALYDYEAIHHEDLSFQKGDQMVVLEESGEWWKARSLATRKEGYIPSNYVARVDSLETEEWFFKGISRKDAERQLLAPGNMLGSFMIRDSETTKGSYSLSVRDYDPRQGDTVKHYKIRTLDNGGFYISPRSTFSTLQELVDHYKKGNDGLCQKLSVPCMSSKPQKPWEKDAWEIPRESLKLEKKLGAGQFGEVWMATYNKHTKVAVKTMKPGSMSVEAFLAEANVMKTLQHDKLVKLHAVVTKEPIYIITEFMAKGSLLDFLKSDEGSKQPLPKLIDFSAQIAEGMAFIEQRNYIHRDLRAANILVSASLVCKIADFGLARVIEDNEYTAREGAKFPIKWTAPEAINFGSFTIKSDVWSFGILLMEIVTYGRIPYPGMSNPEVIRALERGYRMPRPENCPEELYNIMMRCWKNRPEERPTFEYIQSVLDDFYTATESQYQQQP
Sequence of Grb2 SH2 (P62993 whole entry, looked up): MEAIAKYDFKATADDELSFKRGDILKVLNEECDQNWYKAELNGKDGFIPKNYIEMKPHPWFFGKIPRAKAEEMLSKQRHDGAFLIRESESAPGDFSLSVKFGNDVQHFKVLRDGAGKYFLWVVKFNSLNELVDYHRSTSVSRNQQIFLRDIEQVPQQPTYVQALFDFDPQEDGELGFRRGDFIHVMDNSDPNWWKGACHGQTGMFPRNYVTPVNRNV
Sequence of FGFR3 (P22607 whole entry, looked up): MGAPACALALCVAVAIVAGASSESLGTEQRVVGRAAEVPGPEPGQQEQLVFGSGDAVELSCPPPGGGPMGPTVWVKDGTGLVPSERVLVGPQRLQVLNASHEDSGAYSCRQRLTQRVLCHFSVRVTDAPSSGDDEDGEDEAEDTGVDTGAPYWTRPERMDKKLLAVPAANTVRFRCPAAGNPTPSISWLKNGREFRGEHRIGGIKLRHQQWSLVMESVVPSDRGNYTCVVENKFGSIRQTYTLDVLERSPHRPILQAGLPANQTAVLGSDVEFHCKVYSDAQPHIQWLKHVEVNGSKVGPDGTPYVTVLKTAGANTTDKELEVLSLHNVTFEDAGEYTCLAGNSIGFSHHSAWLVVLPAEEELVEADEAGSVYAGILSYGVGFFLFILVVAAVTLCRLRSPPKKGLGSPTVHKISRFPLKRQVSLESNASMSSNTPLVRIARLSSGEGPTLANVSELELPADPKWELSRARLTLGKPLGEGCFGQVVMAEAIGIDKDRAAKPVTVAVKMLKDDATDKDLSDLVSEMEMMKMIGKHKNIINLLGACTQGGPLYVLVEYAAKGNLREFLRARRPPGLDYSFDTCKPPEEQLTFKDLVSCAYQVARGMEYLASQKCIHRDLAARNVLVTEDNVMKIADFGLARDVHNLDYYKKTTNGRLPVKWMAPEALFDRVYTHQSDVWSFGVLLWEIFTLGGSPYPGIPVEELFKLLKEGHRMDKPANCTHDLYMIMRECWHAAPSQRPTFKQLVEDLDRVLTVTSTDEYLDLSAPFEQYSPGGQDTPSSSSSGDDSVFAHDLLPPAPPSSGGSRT

Row | Sequence | phosphorylation enrichment (AncSZ) | phosphorylation enrichment (EPHB1) | phosphorylation enrichment (EPHB2) | phosphorylation enrichment (FGFR1) | phosphorylation enrichment (FGFR3) | phosphorylation enrichment (Fer (mouse)) | phosphorylation enrichment (Fes) | phosphorylation enrichment (Fyn) | phosphorylation enrichment (Hck) | phosphorylation enrichment (Jak2) | phosphorylation enrichment (MERTK) | phosphorylation enrichment (c-Abl (mouse)) | phosphorylation enrichment (c-Src) | SH2 binding enrichment (Grb2 SH2) | SH2 binding enrichment (SHP2-C SH2) | SH2 binding enrichment (c-Src SH2)
1 | DRLTVYIDRVR [LMNA_Y45_A43T] | 1.34 | 0.553 | 0.614 | 0.426 | 0.779 | 0.433 | 1.26 | 0.409 | 0.458 | 1.15 | 0.312 | 0.749 | 0.324 | 0.953 | 0.919 | 0.636
2 | FSGKAYADEEQ [CRIM1_Y826_R831Q] | 1.12 | 0.581 | 0.675 | 0.459 | 0.81 | 0.529 | 1.14 | 0.522 | 0.565 | 1.31 | 0.552 | 1.2 | 0.41 | 0.992 | 0.8 | 0.528
3 | KWHREYNFKYV [RICTOR_Y835_S837F] | 1.04 | 0.454 | 0.392 | 0.358 | 0.564 | 0.357 | 0.786 | 0.394 | 0.397 | 0.693 | 0.376 | 0.528 | 0.38 | 1.49 | 1.35 | 1.22
4 | RTTIHYNYMCN [TP53_Y234_C229R] | 1.81 | 1.48 | 1.13 | 0.892 | 1.6 | 1.25 | 2.24 | 1.16 | 1.11 | 1.57 | 0.901 | 1.2 | 0.649 | 0.8 | 0.603 | 0.994
5 | PARLEYCENEK [IRS1_Y46_Y47C] | 1.75 | 0.947 | 0.823 | 0.809 | 1.16 | 0.816 | 1.74 | 1.12 | 1.04 | 1.76 | 0.762 | 1.08 | 1.05 | 0.909 | 1.21 | 1.26
6 | GQDLLYEDEDL [PACS1_Y303_F302L] | 1.6 | 0.812 | 0.733 | 0.559 | 0.889 | 2.38 | 1.43 | 0.674 | 0.626 | 1.18 | 0.595 | 0.855 | 0.613 | 0.8 | 0.632 | 0.505
7 | AGQEDCDRLRP [CDC42_Y64_Y64C] | 0.784 | 0.552 | 0.444 | 0.476 | 0.586 | 0.439 | 0.882 | 0.436 | 0.424 | 0.682 | 0.364 | 0.609 | 0.427 | 1.07 | 0.945 | 0.548
8 | PQGVRYIYTID [DCX_Y103] | 1.73 | 0.943 | 0.951 | 0.726 | 1.15 | 1 | 5.16 | 4.01 | 1.6 | 2.21 | 0.856 | 1.37 | 4.09 | 0.772 | 15.4 | 0.618
9 | KSDVMYTDWKK [ORM1_Y175_V174M] | 0.738 | 0.488 | 0.454 | 0.416 | 0.682 | 0.463 | 0.842 | 0.485 | 2.03 | 0.764 | 0.562 | 0.689 | 0.616 | 0.771 | 0.626 | 0.47
10 | MAALSYVSEIG [BPIFB2_Y36_K31M] | 0.642 | 0.397 | 0.521 | 0.447 | 0.584 | 0.394 | 0.733 | 0.432 | 0.4 | 0.804 | 0.371 | 0.615 | 0.431 | 0.819 | 0.857 | 0.478
11 | TTGGFYSFGGG [KRT24_Y120_A115T_YF] | 0.623 | 0.766 | 0.442 | 0.46 | 0.446 | 1.55 | 0.847 | 4.22 | 1.57 | 0.604 | 8.96 | 0.585 | 1.67 | 0.654 | 0.618 | 0.418
12 | AVISVYDLVAF [PSEN1_Y256_V261F] | 1.37 | 9.68 | 9.61 | 0.72 | 0.893 | 16 | 2.23 | 8.21 | 7.4 | 1.08 | 8.85 | 0.887 | 5.87 | 0.912 | 0.837 | 0.796
13 | VFFGSYSRPFG [NKAP_Y104_YF] | 1.39 | 0.396 | 0.445 | 0.522 | 0.65 | 0.419 | 0.974 | 0.382 | 0.479 | 1.12 | 0.777 | 1.02 | 0.584 | 1.24 | 1.2 | 1.76
14 | RLAKTYKTTLE [ALB_Y377_E378K] | 0.564 | 0.324 | 0.509 | 0.513 | 0.446 | 0.624 | 0.632 | 0.253 | 0.388 | 0.72 | 0.365 | 1.18 | 0.441 | 1.01 | 0.669 | 0.672
15 | SARFRYLMAEK [LDHB_Y173] | 0.695 | 0.436 | 0.467 | 0.352 | 0.469 | 0.348 | 0.652 | 0.365 | 0.435 | 0.692 | 0.397 | 0.566 | 0.436 | 0.952 | 0.508 | 0.543
16 | SQSPHYFRSGR [GPATCH8_Y1038] | 0.719 | 0.56 | 0.394 | 0.383 | 0.425 | 0.427 | 0.819 | 0.476 | 0.389 | 0.687 | 0.502 | 0.544 | 0.538 | 0.731 | 0.411 | 0.394
17 | VKPENYRRPDI [VHL_Y175_L178P] | 0.566 | 0.335 | 0.468 | 0.388 | 0.526 | 0.344 | 0.699 | 0.333 | 0.364 | 0.525 | 0.371 | 0.63 | 0.436 | 0.846 | 0.647 | 0.427

Row | Sequence | phosphorylation enrichment (AncSZ) | phosphorylation enrichment (EPHB1) | phosphorylation enrichment (EPHB2) | phosphorylation enrichment (FGFR1) | phosphorylation enrichment (FGFR3) | phosphorylation enrichment (Fer (mouse)) | phosphorylation enrichment (Fes) | phosphorylation enrichment (Fyn) | phosphorylation enrichment (Hck) | phosphorylation enrichment (Jak2) | phosphorylation enrichment (MERTK) | phosphorylation enrichment (c-Abl (mouse)) | phosphorylation enrichment (c-Src) | SH2 binding enrichment (Grb2 SH2) | SH2 binding enrichment (SHP2-C SH2) | SH2 binding enrichment (c-Src SH2)
18 | NTEGGYRCICA [CRELD1_Y328] | 0.976 | 0.496 | 0.644 | 0.668 | 0.636 | 0.498 | 1.02 | 0.511 | 0.538 | 0.869 | 0.484 | 0.947 | 0.465 | 0.97 | 0.489 | 0.465
19 | IYRASYYRRGD [LTK_Y676] | 0.821 | 0.398 | 0.422 | 0.481 | 0.555 | 0.453 | 0.757 | 0.594 | 1.2 | 0.621 | 0.763 | 0.927 | 0.666 | 0.728 | 0.471 | 0.439
20 | GTHCHYKAPIV [FZD9_Y569_T573I] | 1.32 | 0.513 | 0.532 | 0.531 | 0.636 | 0.58 | 0.858 | 0.428 | 0.544 | 0.658 | 0.4 | 3.44 | 0.395 | 0.995 | 0.953 | 0.953
21 | SAGSSYSISSI [PAX5_Y179_G183S] | 0.65 | 0.41 | 0.451 | 0.368 | 0.533 | 0.385 | 0.686 | 0.434 | 0.431 | 0.697 | 0.492 | 0.583 | 0.42 | 0.66 | 0.554 | 0.537
22 | EKEQNYDLTEV [ECD_Y448] | 1.31 | 0.569 | 0.675 | 0.655 | 0.73 | 0.694 | 1.31 | 0.544 | 0.666 | 1.06 | 0.593 | 0.737 | 0.466 | 0.962 | 0.802 | 0.704
23 | EESSHYSTEKE [ADAR_Y587] | 1.14 | 0.621 | 0.493 | 0.597 | 0.578 | 0.531 | 1.47 | 0.633 | 0.589 | 0.658 | 0.509 | 0.604 | 0.427 | 0.955 | 0.646 | 0.549
24 | NQKGKYFNVER [ANAPC4_Y469_R465Q] | 0.614 | 0.353 | 0.372 | 0.361 | 0.469 | 0.39 | 0.603 | 0.462 | 0.449 | 0.489 | 0.373 | 0.588 | 0.386 | 1.15 | 1.03 | 0.667
25 | EVEPRYVVLYD [ERCC4_Y577] | 1.22 | 3.5 | 3.44 | 1.36 | 0.986 | 0.547 | 1.13 | 0.664 | 0.646 | 1.07 | 5.22 | 0.91 | 0.683 | 0.894 | 1.84 | 8.72
26 | KVDKEYEVGVR [GHR_Y226_R229G] | 0.752 | 0.434 | 0.48 | 0.472 | 0.493 | 0.398 | 0.796 | 0.401 | 0.452 | 0.553 | 0.41 | 0.658 | 0.414 | 0.851 | 0.764 | 0.534
27 | EIIPFYGMSTF [FNDC3B_Y175_YF] | 0.955 | 0.532 | 0.667 | 0.461 | 0.524 | 0.897 | 0.911 | 0.687 | 0.844 | 0.879 | 0.901 | 0.97 | 0.782 | 0.731 | 0.575 | 3.09
28 | AAVDTYCRHNF [HLA-DRB1_Y107_YF] | 0.794 | 0.562 | 0.516 | 0.426 | 0.715 | 0.589 | 1.04 | 0.415 | 0.501 | 0.88 | 0.497 | 0.755 | 0.548 | 0.912 | 0.593 | 0.529
29 | THEVRYISAGQ [SLCO4A1_Y77_V78I] | 0.683 | 0.426 | 0.396 | 0.361 | 0.53 | 0.379 | 0.705 | 0.391 | 0.416 | 0.669 | 0.408 | 0.838 | 0.418 | 0.726 | 0.65 | 0.495
30 | GDFSRYDEGSG [RECQL5_Y484] | 0.889 | 0.523 | 0.481 | 0.471 | 0.662 | 0.439 | 1.16 | 0.502 | 0.494 | 0.905 | 0.513 | 0.799 | 0.534 | 0.737 | 0.664 | 0.562
31 | QGIYGYHHYMQ [UFSP2_Y287] | 1.6 | 3.8 | 8.11 | 1.32 | 1.52 | 13.8 | 1.31 | 10.6 | 8.27 | 1.36 | 10.4 | 5.12 | 8.3 | 1.03 | 1.67 | 2.15
32 | SSYSRYIMMPN [LEF1_Y114_G113R] | 0.654 | 1.9 | 1.84 | 1.79 | 1.3 | 0.552 | 0.637 | 0.542 | 0.488 | 2.35 | 3.9 | 0.405 | 0.518 | 0.665 | 1.56 | 1.32
33 | DVFRQYASLTG [GANAB_Y379] | 0.568 | 0.422 | 0.44 | 0.395 | 0.428 | 0.417 | 0.709 | 0.379 | 0.448 | 0.589 | 0.406 | 0.573 | 0.402 | 0.893 | 6.85 | 2.5
